Assay: soluble on expression in E. coli; label from the status in PepcDB or PDB records

Soluble on expression in E. coli, not soluble:
MSLIEPDHPQLSIGQQCKLLSISRSSFYYTPKGETDQNLSLMRQIDEQFLETPFFGVRQMTWHLRNEHHLVNEKRIRRLMRLMGLMPIYQKPNNTSRPGRGHKTYPYLLRGLRVDRPNQVWCSDITYLPMRRGFLYLVAIMDWHTRKVLAWRISNTLEADFCVEALNEAIHKFGPPEIMNTDQGSQFTSFAWTDRLRRSGVRISMDGKGRFLDNIFIERLWRTLKYECVYLHAWETGSEAKAGIRKWMTFYNSASLRPSFYVVEGNRFCEGHHHHHH
MSLIKIGVIADDFTGATDIASFLVENGLPTVQINGVPTGKMPEAIDALVISLKTRSCPVVEATQQSLAALSWLQQQGCKQIYFKYCSTFDSTAKGNIGPVTDALMDALDTPFTVFSPALPVNGRTVYQGYLFVMNQLLAESGMRHHPVNPMTDSYLPRLVEAQSTGRCGVVSAHVFEQGVDAVRQELARLQQEGYRYAVLDALTEHHLEIQGEALRDAPLVTGGSGLAIGLARQWAQENGNQARKAGRPLAGRGVVLSGSCSQMTNRQVAHYRQIAPAREVDVARCLSIETLAAYAHELAEWVLGQESVLAPLVFATASTDALAAIQQQYGAQKASQAVETLFSQLAARLAAEGVTRFIVAGGETSGVVTQSLGIKGFHIGPTISPACREGHHHHHH
MSLIKPDHPRLSILRQCALVSLSRSSFYYQEKGESPLNLKLMELIDRQFMETPFYGARQMARHLRNHEGYCVGRKKICRLMAKMGLVPIYQRPRTTKPHPEHVKYPYLLRDLVIDKPNQVWCTDITYIPMRRGFLYLVAIMDWHSRCVLSWRLSNTMEADFCVEALEEALNKFGKPEIFNTDQGSQFTSQSFTETLKEADIKISMDGKGAWTDNVFIERLWRSLKYECVYLHAFETGSKAHHGIGHWIQFYNERRPHSSLGGLSPNSVYETELWSEAAEGHHHHHH

Soluble on expression in E. coli, soluble:
MSLIAVLRINHRPFRDKRITTHVALTARAFGASSILVDEKDETLEQTINKVVENFGGNFFIKSGVDWKREFRNFKGIRVHLTMYGRPLEDVVKEIRESKKDVMILVGSEKVPFEAYEIADYNVSVTNQPISEVSALAIFLDRFYDGEELNWRFTGKINVYPSERGKKVKIIPDEQGCLDLLYKYGASDYLINHVKSVKELAVAIAKKTNADINLVTAGALLHDIGRTQVQGITHAVVGADILRREGIDDRVVSIVEKHIGAGIQSEEAVKLGLPPDNYVPETIEEMIVAHADNLFAGDKRLKLQQVVDNYRKKGLEDAAERIAKLHKFLSTVIGQDMDEIEGHHHHHH
MSLIEVDLLNNDNLKKKTSGFTILSGDSTDGHGGYGAGVLSLDNVTPVFVDPEEERAFVDLGALHARSEVEKRIKFLPNKEEVPNGKLYWLVWVTIDSKKEGPYYAGVAGCEMTVDREIRRGYKSMPEHVNKMDKSIKGKIVVDDMDERSKRILGEYLKSFNEDMWKRSEPELREKLLGEKEGHHHHHH
MSLIFSKIRGNFQDLKDGKISVKQGLITKSDAIELFNIKNWKDYLKLFSIASEVRDFFKNEIEITSTVHVTNICSVTPKCAYCGFAAGTSSEGYVEPFRSNDEQIKSSAAAVENSGIKRVSCSSGHGYSGKEVIRALKAVKSASNLEVLVNAGADITEDCISELKKYNIDTICCNLETTNKSVFNKVKPGENLDDRISVCKMVKKHGIELSSGLLIGIGESYEDRAEHLFFLKELDVEEIPVMGFNPYKDTPMEQCPKCSAIEQAKTIAIARLLFPNIRITSPTPTMGPELAQFALLGGASNIATVIPDNHPMNIKGVGNPKTGNLNDVICMMKELGLTPKLNEGHHHHHH
MSLIKITIGICEYPSVLKSAVYGFEEMFLLANRICKEQNIEVVFEPILIPHTGLTAERLTVVLLPPASLDNYYLAPDDALIRWLKAHYSQGTVLSSACAGVFILAATNLIDSREVTTHWALAETFSQAFPSIALDSNKILINHGDIVTAGGMMSWLDLGFELIAKYASPGVVRQLGKTLVIDTAQRAQSYYQQFHPSFSHGDYAIVSIQQIMHQRYAEPLSIKQLAKQANLTERTMQRRFLKATGYNPNQYLQRLRIQSACHLLESTQHSFDSISHQVGYEDTSACRKVFINVIGLTPREFRKRFAEGHHHHHH
MSLIKLVAIDLDGTLLNSQKEISLRNKQALMAAKQAGVKVVICTGRPLAAIGPYLEELGLQDEGDYSITFNGGLVQKNDTGAIIEKTLMPLEAIHELYQLATTLNMPFDVLSDEVVMQLPSAPNYPSIYSSLNKLLTFESYKLEELTPNRIYNKVVVAIDEAYLNERIKEIPASFYERFEIIKTRNNLLEFMPKGITKAYGISLLAKDLGIRAEEIMTLGDEENDLPMIEYAGLGVAMANAIPLVKEAADVVTDTNDQDGVAKAVEKYILTPLEGGEGHHHHHH

Reference: the DeepSol protein solubility set
